# Assay results from paper PMC9852238 (Nature Communications, 2023).
# Positions count from the first letter of the chain named.
# B1: EY-6A (antibody, V domains shown)
# VH: EVQLVESGGGVVQPGRSLRLSCAASAFTFSSYDMHWVRQAPGKGLEWVAVISYDGSNKYYADSVKGRFTISRDNSKNTLYLQMNSLRAEDTAVYYCAKDGGKLWVYYFDYWGQGTTVTVSS
# VL: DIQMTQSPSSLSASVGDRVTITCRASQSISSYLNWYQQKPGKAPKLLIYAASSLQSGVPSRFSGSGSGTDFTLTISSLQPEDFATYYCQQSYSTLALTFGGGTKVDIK
# notes: also called mAb EY-6A; source: ExpiCHO cells, transiently transfected, purified (rProtein A Sepharose); copies: 2 + 2
# B2: IY-2A (antibody, V domains shown)
# VH: QVQLVEWGAGLLKPSETLSLTCAVYGGSFSGYYWSWIRQPPGKGLEWIGLINHSGSTNYNPSLKSRVTISLDTSKNQFSLKLTSVTAADTAVYYCARGLGIFGVVTLSDVWGQGTTVTVSS
# VL: NFMLTQPHSVSESPGKTVTISCTGSSGSIASNYVQWYQQRPGSAPTTVIYEDNQRPSGVPDRFSGSIDSSSNSASLTISGLRTEDEADYYCQSYDSGIWVFGGGTKLTVL
# notes: source: ExpiCHO cells, transiently transfected, purified (rProtein A Sepharose); copies: 2 + 2
# B3: FP-12A (antibody, V domains shown)
# VH: EVQLVESGGGVVQPGRSLRLSCAASGFTFSSYGMHWVRQAPGKGLEWVAVISYDGSNKYYADSVKGRFTISRDNSKNTLYLQMNSLRAEDTAVYYCANGFGEYYYYAMDVWGQGTTVTVSS
# VL: B2 VL with Q39R, G65A, R82K, G97S, I98N
# notes: copies: 2 + 2
# B4: IS-9A (antibody, V domains shown)
# VH: QVQLVQSGAEVKKPGESLRISCKGSGYSFTNYWISWVRQMPGKGLEWMGRIDPSDSYINYSPSFQGHATISADKSISTAYLQWGSLKASDTAMYYCARGRNYLDSRGRFDYWGQGTLVTVSS
# VL: DIVMTQSPSSLSASVGDRVTITCQASQDISNYLNWYQQKSGKAPKLLIYDASNLETGVPSRFSGSGSGTDFTFTISSLQPEDIATYYCQQYDSLGFTFGPGTKVEIR
# notes: as for B2
# Biological target: BM48-31-CoV RBD-His8-SpyTag003 (Bat coronavirus BM48-31)
# Test: ELISA
# Conditions: both partners purified
row,Binder,binding result
1,B1,binds
2,B2,binds
3,B3,no binding (tested: 50 nM)

# Biological target: SHC014-CoV RBD-His8-SpyTag003 (Bat SARS-like coronavirus RsSHC014)
# Test: ELISA
# Conditions: both partners purified
row,Binder,binding result
1,B1,binds
2,B2,binds
3,B3,no binding (tested: 50 nM)
4,B4,binds

# Biological target: WIV1-CoV RBD-His8-SpyTag003 (Bat SARS-like coronavirus WIV1)
# Test: ELISA
# Conditions: both partners purified
row,Binder,binding result
1,B1,binds
2,B2,binds
3,B3,no binding (tested: 50 nM)
4,B4,binds

# Biological target: pangolin17 (pang17)-CoV RBD-His8-SpyTag003 (pangolin17-CoV)
# Test: ELISA
# Conditions: both partners purified
row,Binder,binding result
1,B1,binds
2,B2,binds
3,B3,no binding (tested: 50 nM)

# Biological target: RaTG13-CoV RBD-His8-SpyTag003 (Bat coronavirus RaTG13)
# Test: ELISA
# Conditions: both partners purified
row,Binder,binding result
1,B1,binds
2,B2,binds
3,B3,no binding (tested: 50 nM)
4,B4,binds

# Biological target: T1, Yunnan2011 (Yun11)-CoV RBD-His8-SpyTag003 (Bat coronavirus Cp/Yunnan2011)
# T1 construct: clade 2
# Test: ELISA
# Conditions: both partners purified
row,Binder,binding result
1,B1,binds
2,B2,binds
3,B3,no binding (tested: 50 nM)

# Biological target: Rs4081-CoV RBD-His8-SpyTag003 (Bat SARS-like coronavirus Rs4081)
# Test: ELISA
# Conditions: both partners purified
row,Binder,binding result
1,B1,binds
2,B2,binds
3,B3,no binding (tested: 50 nM)

# Biological target: RmYN02-CoV RBD-His8-SpyTag003 (Bat coronavirus RmYN02)
# Test: ELISA
# Conditions: both partners purified
row,Binder,binding result
1,B1,binds
2,B2,binds
3,B3,no binding (tested: 50 nM)

# Biological target: SARS-CoV RBD-His8-SpyTag003 (SARS-CoV (GenBank ON131087, strain not …, UniProt P59594))
# Test: ELISA
# Conditions: both partners purified
row,Binder,binding result
1,B3,no binding (tested: 50 nM)

# Biological target: T2, Rf1-CoV RBD-His8-SpyTag003 (Bat SARS-like coronavirus Rf1)
# T2 construct: clade 2
# Test: ELISA
# Conditions: both partners purified
row,Binder,binding result
1,B1,binds
2,B2,binds
3,B3,no binding (tested: 50 nM)

# Biological target: T3, SARS-CoV-2 RBD (wild type), ELISA antigen (SARS-CoV-2, UniProt P0DTC2)
# Test: cell-based or functional assay
# Conditions: not given
row,Binder,IC50 of neutralisation of SARS-CoV-2 (potency of IS-9A) [µg/mL]
1,B4,0.03

# Biological target: T3, SARS-CoV-2 RBD (wild type), ELISA …
# Test: ELISA
# Conditions: both partners purified
row,Binder,OD in ELISA at 1 µg/ml [OD]
1,B1,1.81
2,B2,1.87
3,B3,1.79
4,B4,1.88

# Biological target: SARS-CoV spike, ELISA antigen (SARS-CoV, strain not named (reference …, UniProt P59594))
# Test: ELISA
# Conditions: both partners purified
row,Binder,OD in ELISA at 1 µg/ml [OD]
1,B1,1.67
2,B2,1.78
3,B4,1.83

# Biological target: SARS-CoV-2 spike (S) protein, ELISA antigen (SARS-CoV-2, Wuhan-Hu-1 (assumed), UniProt P0DTC2)
# Test: ELISA
# Conditions: both partners purified
row,Binder,OD in ELISA at 1 µg/ml [OD]
1,B1,1.75
2,B2,1.8
3,B3,1.76
4,B4,1.78
